{
  "source": "patent US20130217060A1",
  "about": "(Butamax(TM) Advanced Biofuels LLC, priority 2007, published 2013)",
  "molecules": {"B1": {"name": "TER CAC0462 protein: putative trans-2-enoyl-CoA reductase (SEQ ID NO:10) from C. acetobutylicum ATCC 824 expressed in E. coli (protein, listed as Clostridium acetobutylicum)", "chain": "MIVKAKFVKGFIRDVHPYGCRREVLNQIDYCKKAIGFRGPKKVLIVGASSGFGLATRISVAFGGPEAHTIGVSYETGATDRRIGTAGWYNNIFFKEFAKKKGLVAKNFIEDAFSNETKDKVIKYIKDEFGKIDLFVYSLAAPRRKDYKTGNVYTSRIKTILGDFEGPTIDVERDEITLKKVSSASIEEIEETRKVMGGEDWQEWCEELLYEDCFSDKATTIAYSYIGSPRTYKIYREGTIGIAKKDLEDKAKLINEKLNRVIGGRAFVSVNKALVTKASAYIPTFPLYAAILYKVMKEKNIHENCIMQIERMFSEKIYSNEKIQFDDKGRLRMDDLELRKDVQDEVDRIWSNITPENFKELSDYKGYKKEFMNLNGFDLDGVDYSKDLDIELLRKLEP"}, "B2": {"name": "Ald protein: butyraldehyde dehydrogenase (SEQ ID NO:12) from C. beijerinckii ATCC 35702 expressed in E. coli (protein, listed as Clostridium beijerinckii)", "chain": "MNKDTLIPTTKDLKVKTNGENINLKNYKDNSSCFGVFENVENAISSAVHAQKILSLHYTKEQREKIITEIRKAALQNKEVLATMILEETHMGRYEDKILKHELVAKYTPGTEDLTTTAWSGDNGLTVVEMSPYGVIGAITPSTNPTETVICNSIGMIAAGNAVVFNGHPCAKKCVAFAVEMINKAIISCGGPENLVTTIKNPTMESLDAIIKHPSIKLLCGTGGPGMVKTLLNSGKKAIGAGAGNPPVIVDDTADIEKAGRSIIEGCSFDNNLPCIAEKEVFVFENVADDLISNMLKNNAVIINEDQVSKLIDLVLQKNNETQEYFINKKWVGKDAKLFLDEIDVESPSNVKCIICEVNANHPFVMTELMMPILPIVRVKDIDEAIKYAKIAEQNRKHSAYIYSKNIDNLNRFEREIDTTIFVKNAKSFAGVGYEAEGFTTFTIAGSTGEGITSARNFTRQRRCVLAG"}, "B3": {"name": "crotonase protein: crotonase (SEQ ID NO:8) from C. acetobutylicum ATCC 824 expressed in E. coli (protein, listed as Clostridium acetobutylicum)", "chain": "MELNNVILEKEGKVAVVTINRPKALNALNSDTLKEMDYVIGEIENDSEVLAVILTGAGEKSFVAGADISEMKEMNTIEGRKFGILGNKVFRRLELLEKPVIAAVNGFALGGGCEIAMSCDIRIASSNARFGQPEVGLGITPGFGGTQRLSRLVGMGMAKQLIFTAQNIKADEALRIGLVNKVVEPSELMNTAKEIANKIVSNAPVAVKLSKQAINRGMQCDIDTALAFESEAFGECFSTEDQKDAMTAFIEKRKIEGFKNR"}},
  "key": {"[1]": {"tested_on": "trans-2-enoyl-CoA reductase", "assay": "Trans-2-enoyl-CoA reductase activity assay (Hoffmeister et al.)", "assay_type": "biochemical", "details": "induced E. coli BL21-AI culture carrying pRARE, one typical assay", "method": "Trans-2-enoyl-CoA reductase activity was assayed as described by Hoffmeister et al. (J. Biol. Chem. 280, 4329-4338 (2005)).\nTrans-2-enoyl-CoA reductase activity was assayed as described by Hoffmeister et al., J. Biol. Chem. 280:4329 (2005).\n(§1) Enzyme assays were performed as described above."}, "[2]": {"tested_on": "butyraldehyde dehydrogenase", "assay": "Acylating aldehyde dehydrogenase activity (NADH formation, 340 nm)", "details": "induced E. coli BL21-AI culture, one typical assay"}, "crotonase": {"biological_target": "T1, crotonase (Clostridium acetobutylicum, UniProt P52046)", "T1 construct": "made in house; host or cells: E. coli BL21-AI (pDEST14crt); S. cerevisiae BY4741 (pNY11) and BY4743 (pNY103)", "assay": "Crotonase activity assay (Stern)", "assay_type": "biochemical", "details": "induced E. coli BL21-AI culture, one typical assay", "method": "Crotonase activity was assayed as described by Stern (Methods Enzymol. 1, 559-566, (1954)).\nas §1"}},
  "data": [
    {"molecule": "B1", "values": [
      {"measurement": "specific activity (trans-2-enoyl-CoA reductase)", "setting": "[1]", "result": 0.694, "unit": "µmol/mg/min"}
    ]},
    {"molecule": "B2", "values": [
      {"measurement": "specific activity (acylating aldehyde dehydrogenase)", "setting": "[2]", "result": 0.106, "unit": "µmol/mg/min"}
    ]},
    {"molecule": "B3", "values": [
      {"measurement": "specific activity (crotonase)", "setting": "crotonase", "result": 444, "unit": "µmol/mg/min"}
    ]}
  ]
}
